Residue numbers refer to the chain shown, from its start. Names may count otherwise. Blank lines part the entries; values can stand above or below the binder they belong to.
Target: His6-ybbR-alpha-SMA, recombinant, assembled into filaments (human, UniProt P62736 1-377)
Experiment: co-sedimentation; actin co-pelleting (spin-down) assay: 4 µM α-SMA pre-assembled into filaments (with Rhodamine muscle actin), 0.4 µM PLCG1 and 1 µM myosin in 50 mM HEPES pH 7.4, 150 mM NaCl, 1 mM TCEP, 2 h at room temperature; high-speed centrifugation; supernatant and pellet on SDS-PAGE
Details: both partners purified

binding result: binds
B1: Rat PLCG1 (aa 21-1215) WT, recombinant (enzyme, UniProt P10686 21-1215, looked up)
chain: EVLHLCRSLEVGTVMTLFYSKKSQRPERKTFQVKLETRQITWSRGADKIEGSIDIREIKEIRPGKTSRDFDRYQEDPAFRPDQSHCFVILYGMEFRLKTLSLQATSEDEVNMWIKGLTWLMEDTLQAATPLQIERWLRKQFYSVDRNREDRISAKDLKNMLSQVNYRVPNMRFLRERLTDFEQRSGDITYGQFAQLYRSLMYSAQKTMDLPFLETNTLRTGERPELCQVSLSEFQQFLLEYQGELWAVDRLQVQEFMLSFLRDPLREIEEPYFFLDELVTFLFSKENSVWNSQLDAVCPETMNNPLSHYWISSSHNTYLTGDQFSSESSLEAYARCLRMGCRCIELDCWDGPDGMPVIYHGHTLTTKIKFSDVLHTIKEHAFVASEYPVILSIEDHCSIAQQRNMAQHFRKVLGDTLLTKPVDIAADGLPSPNQLKRKILIKHKKLAEGSAYEEVPTSVMYSENDISNSIKNGILYLEDPVNHEWYPHYFVLTSSKIYYSEETSSDQGNEDEEEPKEASGSTELHSSEKWFHGKLGAGRDGRHIAERLLTEYCIETGAPDGSFLVRESETFVGDYTLSFWRNGKVQHCRIHSRQDAGTPKFFLTDNLVFDSLYDLITHYQQVPLRCNEFEMRLSEPVPQTNAHESKEWYHASLTRAQAEHMLMRVPRDGAFLVRKRNEPNSYAISFRAEGKIKHCRVQQEGQTVMLGNSEFDSLVDLISYYEKHPLYRKMKLRYPINEEALEKIGTAEPDYGALYEGRNPGFYVEANPMPTFKCAVKALFDYKAQREDELTFTKSAIIQNVEKQDGGWWRGDYGGKKQLWFPSNYVEEMINPAILEPEREHLDENSPLGDLLRGVLDVPACQIAIRPEGKNNRLFVFSISMPSVAQWSLDVAADSQEELQDWVKKIREVAQTADARLTEGKMMERRKKIALELSELVVYCRPVPFDEEKIGTERACYRDMSSFPETKAEKYVNKAKGKKFLQYNRLQLSRIYPKGQRLDSSNYDPLPMWICGSQLVALNFQTPDKPMQMNQALFMAGGHCGYVLQPSTMRDEAFDPFDKSSLRGLEPCVICIEVLGARHLPKNGRGIVCPFVEIEVAGAEYDSTKQKTEFVVDNGLNPVWPAKPFHFQISNPEFAFLRFVVYEEDMFSDQNFLAQATFPVKGLKTGYRAVPLKNNYSEDLELASLLIKIDIFPAK
notes: Phospholipase C gamma 1, rat, aa 21-1215; PDB 6PBC (cited) is the structure of PLCG1 from that work; also called wild-type PLCG1; PLCG1 WT; source: expressed and purified as previous published protocol (Hajicek et al, 2019)

binding result: binds
B2: Rat PLCG1 (aa 21-1215) D1165H, recombinant (enzyme, UniProt P10686 21-1215, looked up)
chain: B1 chain with D1145H
notes: Phospholipase C gamma 1, rat, aa 21-1215, with the human leukemia/lymphoma-associated mutation D1165H; also called recombinant PLCG1 D1165H protein; source: expressed and purified as previous published protocol (Hajicek et al, 2019)

Reference: PMC12457681, “Hyperactive PLCG1 induces cell-autonomous and bystander T cell activation and drug resistance” (EMBO Reports, 2025)
